Consider 6 molecules from PMC7026407, “Multiple Growth Factor Targeting by Engineered Insulin-like Growth Factor Binding Protein-3 Augments EGF Receptor Tyrosine Kinase Inhibitor Efficacy” (Scientific Reports, 2020).

The chains are these.
B3: PDGF BB (ligand, UniProt P01127 82-190, looked up)
chain: SLGSLTIAEPAMIAECKTRTEVFEISRRLIDRTNANFLVWPPCVEVQRCSGCCNNRNVQCRPTQVQLRPVQVRKIEIVRKKPIFKKATVTLEDHLACKCETVAAARPVT
notes: platelet-derived growth factor B chain
B5: VEGF-B (ligand, UniProt P49765 22-207, looked up)
chain: PVSQPDAPGHQRKVVSWIDVYTRATCQPREVVVPLTVELMGTVAKQLVPSCVTVQRCGGCCPDDGLECVPTGQHQVRMQILMIRYPSSQLGEMSLEEHSQCECRPKKKDSAVKPDRAATPHHRPQPRSVPGWDSAPGAPSPADITHPTPAPGPSAHAAPSTTSALTPGPAAAAADAAASSVAKGGA
notes: vascular endothelial growth factor B

Common to all, as to conditions: both partners purified
For experiment [1], the target named is T1, hepatocyte growth factor (UniProt P14210 32-728).
T1 construct: hepatocyte growth factor, commercial; Mature HGF is a two-chain (alpha/beta) product of one precursor; the preparation is said to hold both processed and unprocessed forms; also called HGF; source: expressed in insect cells
Description: SPR; IGF binding protein or Fc fusion amine-coupled to a CM4 chip, growth factor as analyte; Biacore T100 or T200, HBS-P, BSA (0.2 mg/ml) or NaCl (0.65 M final) to reduce non-specific binding, 25 °C; 1:1 binding analysis. A general note: SPR reads the build-up and loss of mass on a sensor chip optically.
T1 sequence (P14210 32-728): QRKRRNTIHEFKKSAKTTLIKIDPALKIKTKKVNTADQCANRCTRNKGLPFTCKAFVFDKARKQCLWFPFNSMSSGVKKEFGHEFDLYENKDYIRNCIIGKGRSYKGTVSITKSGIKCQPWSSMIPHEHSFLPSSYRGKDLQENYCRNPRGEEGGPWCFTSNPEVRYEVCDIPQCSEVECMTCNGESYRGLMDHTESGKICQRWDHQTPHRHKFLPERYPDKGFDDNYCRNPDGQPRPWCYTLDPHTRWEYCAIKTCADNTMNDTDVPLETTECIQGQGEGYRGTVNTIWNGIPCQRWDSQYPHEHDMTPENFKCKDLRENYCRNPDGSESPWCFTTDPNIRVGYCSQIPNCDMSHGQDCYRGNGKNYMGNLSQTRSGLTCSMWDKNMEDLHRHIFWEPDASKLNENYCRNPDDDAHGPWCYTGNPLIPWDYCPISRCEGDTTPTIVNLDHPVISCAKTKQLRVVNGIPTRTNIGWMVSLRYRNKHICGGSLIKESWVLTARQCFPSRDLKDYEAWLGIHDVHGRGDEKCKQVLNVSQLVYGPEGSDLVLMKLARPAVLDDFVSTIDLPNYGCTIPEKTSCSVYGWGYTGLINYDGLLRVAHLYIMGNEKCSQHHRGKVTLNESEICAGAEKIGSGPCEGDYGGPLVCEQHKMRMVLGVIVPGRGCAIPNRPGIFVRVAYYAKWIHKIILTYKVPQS

Experiment [2] addresses T2, 56662 (UniProt P17936-1 28-291).
T2 construct: the secretory signal peptide was derived from IGFBP-2; Fc portion of IgG1 added to the C terminus of IGFBP-3; called an Fc dimer; Probably the mature IGFBP-3 after removal of the IGFBP-2 signal peptide; also called IGFBP-3-Fc; BP3-Fc (unmodified IGFBP-3 Fc construct); source: 293 T cells, transfected; conditioned medium purified by proteinA Sepharose; not shown: Fc (IgG1), C-terminal, kept
Briefly: SPR; growth factor immobilised on a CM4 chip instead of the binding protein (asterisk in Table 1), binding protein or Fc fusion as analyte; HBS-P, 25 °C; regeneration with 4 M MgCl2 then 5 M guanidinium chloride; 1:1 binding analysis.

Experiment [3] concerns the target T2, 56662. Briefly: SPR; IGF binding protein or Fc fusion amine-coupled to a CM4 chip, growth factor as analyte; Biacore T100 or T200, HBS-P, BSA (0.2 mg/ml) or NaCl (0.65 M final) to reduce non-specific binding, 25 °C; 1:1 binding analysis.
Experiment [4] deals with T3, 56662 (UniProt P17936-1 28-291).
T3 construct: Fc dimer; also called BP3-Fc; IGFBP-3-Fc; source: 293T cells, transfected, conditioned medium, purified (protein A Sepharose); not shown: Fc (IgG1), C-terminal, kept
Briefly: SPR; growth factor amine-coupled to a CM4 chip, Fc fusion as analyte (values marked * in Table 1); Biacore T100/T200; HBS-P, with 0.2 mg/ml BSA or 0.65 M NaCl to reduce non-specific binding; 25 °C; 1:1 binding fit.

Experiment [5] has as its target T4, Chimera A.
T4 construct: VEGF receptor 1 domain 2, first part of VEGF-trap; VEGF receptor 2 domain 3, second part of VEGF-trap; VEGF-trap inserted between the IGFBP-3 and the Fc domain; Fc dimer; also called chA; BP3-VEGF-trap-Fc; source: 293T cells, transfected, conditioned medium, purified (protein A Sepharose); not shown: Fc (IgG1), C-terminal, kept
Described as above.

Experiment [6] addresses T5, IGFBP-7 (UniProt Q16270 27-282).
T5 sequence (looked up): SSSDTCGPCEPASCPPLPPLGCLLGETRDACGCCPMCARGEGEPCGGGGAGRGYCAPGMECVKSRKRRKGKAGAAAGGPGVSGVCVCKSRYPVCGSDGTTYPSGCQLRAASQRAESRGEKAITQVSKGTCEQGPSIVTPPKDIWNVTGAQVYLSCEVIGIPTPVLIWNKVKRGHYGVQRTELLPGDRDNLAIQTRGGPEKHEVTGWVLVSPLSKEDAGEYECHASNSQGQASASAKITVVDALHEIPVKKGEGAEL
Description: SPR; IGF binding protein or Fc fusion amine-coupled to a CM4 chip, growth factor as analyte; Biacore T100/T200; HBS-P, with 0.2 mg/ml BSA or 0.65 M NaCl to reduce non-specific binding; 25 °C; 1:1 binding fit.

For experiment [7], the target named is IGFBP-3 (UniProt P17936 28-291). Described as above.
Experiment [8] concerns the target T3, 56662. The experiment is described as above.
The target in experiment [9] is T6, IGFBP-2 (UniProt P18065 36-325).
T6 sequence (looked up): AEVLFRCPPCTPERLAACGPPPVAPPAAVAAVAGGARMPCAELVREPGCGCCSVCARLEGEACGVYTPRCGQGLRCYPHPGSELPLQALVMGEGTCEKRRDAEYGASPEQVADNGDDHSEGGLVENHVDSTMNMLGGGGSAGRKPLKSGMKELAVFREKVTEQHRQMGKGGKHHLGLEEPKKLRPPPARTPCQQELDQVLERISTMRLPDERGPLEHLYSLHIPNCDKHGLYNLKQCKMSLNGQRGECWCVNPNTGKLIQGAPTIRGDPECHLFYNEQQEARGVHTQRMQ
The description is as above.

The target in experiment [10] is T7, hepatocyte growth factor (UniProt P14210 32-728).
T7 construct: hepatocyte growth factor; also called HGF; source: bought
Description: SPR; growth factor amine-coupled to a CM4 chip, Fc fusion as analyte (values marked * in Table 1); Biacore T100/T200; HBS-P, with 0.2 mg/ml BSA or 0.65 M NaCl to reduce non-specific binding; 25 °C; 1:1 binding fit.
T7 sequence (P14210 32-728): as the sequence (P14210 32-728) above

Experiment [11] deals with B5. The experiment is described as above.
Experiment [12] has as its target neuregulin-1 (UniProt Q02297 20-241). The experiment is described as above.
Experiment [13] deals with T8, bFGF (UniProt P09038 143-288).
T8 construct: basic fibroblast growth factor; also called basic FGF
The description is as above.

Experiment [14] deals with B3. The description is as above.
The target in experiment [15] is T9, insulin-like growth factor-1 (UniProt P05019 49-118).
T9 construct: insulin-like growth factor 1; also called IGF1; IGF-1
Description: SPR; IGF binding protein or Fc fusion amine-coupled to a CM4 chip, growth factor as analyte; Biacore T100/T200; HBS-P, with 0.2 mg/ml BSA or 0.65 M NaCl to reduce non-specific binding; 25 °C; 1:1 binding fit.

In experiment [16] the target is T10, insulin-like growth factor-2 (UniProt P01344 25-91).
T10 construct: insulin-like growth factor 2; also called IGF2; IGF-2
Described as above.

T4 sequence (Q02297 20-241, stated change not applied): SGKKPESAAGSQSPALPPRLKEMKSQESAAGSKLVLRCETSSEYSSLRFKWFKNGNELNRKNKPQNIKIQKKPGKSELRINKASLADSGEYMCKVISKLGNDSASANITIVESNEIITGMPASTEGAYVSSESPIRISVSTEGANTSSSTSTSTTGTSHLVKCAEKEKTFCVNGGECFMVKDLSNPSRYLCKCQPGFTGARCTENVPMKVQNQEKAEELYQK
neuregulin-1, sequence (Q02297 20-241): as the sequence (Q02297 20-241, stated change not applied) above
T10 sequence (P01344 25-91): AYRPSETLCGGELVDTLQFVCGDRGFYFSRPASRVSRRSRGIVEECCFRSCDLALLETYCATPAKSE
T9 sequence (P05019 49-118): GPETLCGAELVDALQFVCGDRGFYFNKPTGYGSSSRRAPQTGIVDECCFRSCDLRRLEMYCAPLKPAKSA
T8 sequence (P09038 143-288): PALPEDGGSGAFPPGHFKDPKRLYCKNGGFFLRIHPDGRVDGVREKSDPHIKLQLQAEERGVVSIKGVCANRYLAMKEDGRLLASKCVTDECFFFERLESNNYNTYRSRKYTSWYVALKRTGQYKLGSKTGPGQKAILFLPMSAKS

B1: IGFBP-7 (natural protein, UniProt Q16270 27-282, looked up)
chain: SSSDTCGPCEPASCPPLPPLGCLLGETRDACGCCPMCARGEGEPCGGGGAGRGYCAPGMECVKSRKRRKGKAGAAAGGPGVSGVCVCKSRYPVCGSDGTTYPSGCQLRAASQRAESRGEKAITQVSKGTCEQGPSIVTPPKDIWNVTGAQVYLSCEVIGIPTPVLIWNKVKRGHYGVQRTELLPGDRDNLAIQTRGGPEKHEVTGWVLVSPLSKEDAGEYECHASNSQGQASASAKITVVDALHEIPVKKGEGAEL
notes: source: bought (commercially available, carrier-free)
As to B1, the binding result in experiment [1] was “binds”.

B2: PDGF BB (ligand, UniProt P01127 82-190, looked up)
chain: SLGSLTIAEPAMIAECKTRTEVFEISRRLIDRTNANFLVWPPCVEVQRCSGCCNNRNVQCRPTQVQLRPVQVRKIEIVRKKPIFKKATVTLEDHLACKCETVAAARPVT
notes: platelet-derived growth factor B chain; Homodimer of B chains by its name
One may read the Kd as the free concentration of one partner at which half of the binding sites on the other are occupied at equilibrium, for simple one-to-one binding. In the case of B2, the figures for the Kd in experiment [2] and in experiment [3] were 4.19 nM and 0.52 nM, respectively.
By koff is commonly meant a measure of how fast the partners let go of each other. High values mean a short-lived complex, low ones a long-lived complex. In general, kon refers to the second-order rate constant of association. A lower kon goes with slow association. Turning to B3, in experiment [4], the koff turned out to be 0.000562 s⁻¹ and the kon worked out at 259000 M⁻¹ s⁻¹.

B4: neuregulin-1 (ligand)
chain: SERKEGRGKGKGKKKERGSGKKPESAAGSQSPALPPRLKEMKSQESAAGSKLVLRCETSSEYSSLRFKWFKNGNELNRKNKPQNIKIQKKPGKSELRINKASLADSGEYMCKVISKLGNDSASANITIVESNEIITGMPASTEGAYVSSESPIRISVSTEGANTSSSTSTSTTGTSHLVKCAEKEKTFCVNGGECFMVKDLSNPSRYLCKCPNEFTGDRCQNYVMASFYKHLGIEFMEAEELYQK
modifications: R&D 377-HB, neuregulin extracellular domain, taken as NRG1-beta1 Ser2-Lys246; the paper prints only the catalogue number and 'extracellular domain'.
In the case of B4, the koff in experiment [4] is 0.00443 s⁻¹; in experiment [5], 0.000291 s⁻¹; in experiment [6] it was 0.00129 s⁻¹; in [7], 0.000883 s⁻¹. Also, the kon in experiment [4] amounted to 481000 M⁻¹ s⁻¹; in experiment [5], 394000 M⁻¹ s⁻¹; in experiment [6], 800 M⁻¹ s⁻¹; in experiment [7] it was 425000 M⁻¹ s⁻¹.
As to B5, the koff came to 0.00277 s⁻¹ in experiment [6], 0.000284 s⁻¹ in experiment [8], 0.000751 s⁻¹ in [7] and 0.000441 s⁻¹ in experiment [9]. Moreover, the kon in [6] stood at 875000 M⁻¹ s⁻¹; in experiment [8], 45000 M⁻¹ s⁻¹; in experiment [7] it was 96600 M⁻¹ s⁻¹; in experiment [9], 157000 M⁻¹ s⁻¹.

B6: D3 (Fc fusion)
chain: GASSAGLGPVVRCEPCDARALAQCAPPPAVCAELVREPGCGCCLTCALSEGQPCGIYTERCGSGLRCQPSPDEARPLQALLDGRGLCVNASAVSRPAPPAPGNASESEEDRSAGSVESPSVSSTHRVSDPKFHPKGHAKVDYESQSTDTQNFSSESKRETEYGPCRREMEDTLNHLKFLNVLSPRGVHIPNCDKKGFYKKKQCRPSKGRKRGFCWCVDKYGQPLPGYTTKGKEDVHCYSMQSK
modifications: Secreted Fc-fusion dimer; Fc omitted. Deletions 121-126, 166-174 and 180-185 are in 56662 precursor numbering (UniProt = construct + 2; the offset agrees with the H3t33-type deletion printed in …)
With B6, the koff in experiment [10] stood at 0.000291 s⁻¹; in experiment [11], 0.000445 s⁻¹; in [12] it was 0.00053 s⁻¹; in experiment [13], 0.000529 s⁻¹; in experiment [14] it was 0.00175 s⁻¹; in experiment [15], 8.36e-05 s⁻¹. In [16], this molecule registered a koff of 0.00185 s⁻¹. Further, the kon in experiment [10] amounted to 110000 M⁻¹ s⁻¹; in experiment [11], 25000 M⁻¹ s⁻¹; in experiment [12] it was 270000 M⁻¹ s⁻¹; in experiment [13], 161000 M⁻¹ s⁻¹; in experiment [14], 550000 M⁻¹ s⁻¹; in experiment [15], 163000 M⁻¹ s⁻¹. Also, in experiment [16], the kon was 8.25e+06 M⁻¹ s⁻¹.
